Target: Spike protein of SARS-CoV-2 (isolate USA-WA1/2020) (SARS-CoV-2) (UniProt P0DTC2)
Assay: cell-based or functional assay

## S309 (antibody)
  neutralization EC50 (viability of Vero E6 cells by CellTiter-Glo, 72 h after infection): 0.858 µg/mL
